According to publication PMC2680043, “Characterization of a Novel Small Molecule Subtype Specific Estrogen-Related Receptor α Antagonist in MCF-7 Breast Cancer Cells” (PLoS ONE, 2009):

Columns and labels:
Assay in all cases: pull-down; biotinylated coactivator RID bound to streptavidin beaded agarose; in vitro translated [35S]-labeled ERRα added in 1x TBS with 10 µM Compound A, 4 hours at 4°C; SDS gel, phosphorimaging; compared with the DMSO sample
Settings in all cases: one partner purified
[1] = molecular target: T1, GRIP-1 receptor interaction domain (RID), aa 565-798, biotinylated (UniProt Q61026 565-798, biotinylated (sites not given))
T1 construct: also called GRIP-1 RID; SRC-2
T1 sequence (looked up): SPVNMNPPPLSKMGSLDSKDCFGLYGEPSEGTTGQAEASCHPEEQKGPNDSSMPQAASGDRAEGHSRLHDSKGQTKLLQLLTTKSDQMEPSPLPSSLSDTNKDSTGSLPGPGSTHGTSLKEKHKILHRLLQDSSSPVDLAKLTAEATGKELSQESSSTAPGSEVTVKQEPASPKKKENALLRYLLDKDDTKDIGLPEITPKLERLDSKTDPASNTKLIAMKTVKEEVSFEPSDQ

[2] = molecular target: T2, PGC-1α receptor interaction domain (RID), aa 1-338, biotinylated (UniProt Q9UBK2 1-338, biotinylated (sites not given))
T2 construct: also called PGC-1α RID; PPARGC1A
T2 sequence (looked up): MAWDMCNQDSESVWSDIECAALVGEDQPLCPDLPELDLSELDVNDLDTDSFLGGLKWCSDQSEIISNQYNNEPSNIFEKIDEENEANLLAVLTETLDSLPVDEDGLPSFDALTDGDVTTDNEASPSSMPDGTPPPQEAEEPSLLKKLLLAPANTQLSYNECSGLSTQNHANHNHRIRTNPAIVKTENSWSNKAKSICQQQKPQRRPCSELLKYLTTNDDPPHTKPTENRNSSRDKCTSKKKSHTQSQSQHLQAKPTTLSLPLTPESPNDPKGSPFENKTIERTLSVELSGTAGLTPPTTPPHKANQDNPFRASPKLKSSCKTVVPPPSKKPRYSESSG

[3] = molecular target: T3, AIB1 receptor interaction domain (RID), aa 557-773, biotinylated (UniProt Q9Y6Q9 557-773, biotinylated (sites not given))
T3 construct: also called AIB1 RID; SRC-3
T3 sequence (looked up): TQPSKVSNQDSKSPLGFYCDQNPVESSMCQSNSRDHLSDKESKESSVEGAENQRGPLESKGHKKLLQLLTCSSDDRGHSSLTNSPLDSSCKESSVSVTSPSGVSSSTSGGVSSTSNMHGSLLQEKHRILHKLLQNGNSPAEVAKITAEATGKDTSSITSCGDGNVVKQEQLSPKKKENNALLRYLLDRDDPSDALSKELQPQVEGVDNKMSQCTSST

B1: full-length human estrogen-related receptor α (ERRα), [35S]methionine-labeled (receptor, UniProt P11474 1-423, looked up)
chain: MSSQVVGIEPLYIKAEPASPDSPKGSSETETEPPVALAPGPAPTRCLPGHKEEEDGEGAGPGEQGGGKLVLSSLPKRLCLVCGDVASGYHYGVASCEACKAFFKRTIQGSIEYSCPASNECEITKRRRKACQACRFTKCLRVGMLKEGVRLDRVRGGRQKYKRRPEVDPLPFPGPFPAGPLAVAGGPRKTAAPVNALVSHLLVVEPEKLYAMPDPAGPDGHLPAVATLCDLFDREIVVTISWAKSIPGFSSLSLSDQMSVLQSVWMEVLVLGVAQRSLPLQDELAFAEDLVLDEEGARAAGLGELGAALLQLVRRLQALRLEREEYVLLKALALANSDSVHIEDAEAVEQLREALHEALLEYEAGRAGPGGGAERRRAGRLLLTLPLLRQTAGKVLAHFYGVKLEGKVPMHKLFLEMLEAMMD
modifications: [35S]methionine label
notes: estrogen-related receptor alpha, human, full length, amplified from human brain Marathon-ready cDNA and cloned into pcDNA3.1(+); No tag is named for this construct; also called hERRα; ESRRA; source: in vitro translated (TnT coupled reticulocyte lysate system, Promega), [35S]methionine added
percent reduction of the interaction with 10 µM Compound A against vehicle (DMSO) [1]: 29%
percent reduction of the interaction with 10 µM Compound A against vehicle (DMSO) [2]: 81%
percent reduction of the interaction with 10 µM Compound A against vehicle (DMSO) [3]: 35%
